The record followed here is US20200087400A1 (EUREKA THERAPEUTICS, published 2020).

Assay [1] has as its target T1, HLA-A*02:01 on T2 cells with no peptide loaded (human).
T1 construct: TAP-deficient T2 cells, no peptide loaded from outside; also called T2 cells without peptide loading
Description: flow cytometry, phage on T2 cells, anti-M13 + R-PE anti-mouse IgG. The method, boiled down:
(§1)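 Flow read-out uses R-PE fluorescence: peptide/β2M-loaded T2 cells stained with scFv phage, then anti-M13 and R-PE anti-mouse IgG, all on ice for 30-60 min per step with double washes.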
In general terms: A flow cytometer gives signals particle by particle.

The target of assay [2] is T2, PSA 146-154 peptide/HLA-A*02:01 complex on the cell surface (human).
T2 construct: also called PSA146/HLA-A*02:01; PSA146-loaded T2 cells
The description is as above. In a few lines:
as §1

The target in a further assay is T3, Bio-P19 member A2E-1 (chain 2: C-terminal BirA substrate peptide (BSP), enzymatically biotinylated; its letters are not printed in the patent and it is left out).
T3 construct: also called biotinylated control peptide A2E-1/HLA-A*02:01 monomer
Kind of assay: phage ELISA, streptavidin plate, anti-M13-HRP. The method, boiled down: (§2)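 Phage ELISA: individual scFv phage clones from panning pools enriched against PSA146/HLA-A*02:01 were incubated in coated streptavidin plates; binding was detected with HRP anti-M13 and HRP substrate, read at 450 nm. For flow cytometry, T2 cells loaded with peptide and β2M were stained with purified phage clones.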
(An ELISA detects its analyte on a solid surface through an enzyme-linked reagent.)

The next assay has as its target T4, Bio-P19 member A2E-10 (chain 2: C-terminal BirA substrate peptide (BSP), enzymatically biotinylated; its letters are not printed in the patent and it is left out).
T4 construct: also called biotinylated control peptide A2E-10/HLA-A*02:01 monomer
Kind of assay: phage ELISA, streptavidin plate, anti-M13-HRP. The method, boiled down: as §2

The target of a further assay is T5, Bio-P19 member A2E-14 (chain 2: C-terminal BirA substrate peptide (BSP), enzymatically biotinylated; its letters are not printed in the patent and it is left out).
T5 construct: also called biotinylated control peptide A2E-14/HLA-A*02:01 monomer
Description: phage ELISA, streptavidin plate, anti-M13-HRP. The method, boiled down: as §2

Assay [3] has as its target T6, control peptide A2E-2/HLA-A*02:01 complex on T2 cells (member of the P19 mixture) (human).
T6 construct: Loaded on T2 cells as part of the mixture of 19 control peptides
Kind of assay: flow cytometry, phage on T2 cells. In a few lines: as §1

Assay [4] concerns the target T7, control peptide A2E-21/HLA-A*02:01 complex on T2 cells (member of the P19 mixture) (human).
T7 construct: Loaded on T2 cells as part of the mixture of 19 control peptides
Kind of assay: flow cytometry, phage on T2 cells. In a few lines: as §1

Assay [5] deals with T8, control peptide A2E-7/HLA-A*02:01 complex on T2 cells (member of the P19 mixture) (human).
T8 construct: Loaded on T2 cells as part of the mixture of 19 control peptides
Description: flow cytometry, phage on T2 cells. In a few lines:
as §1

The target of assay [6] is T9, control peptide A2E-13/HLA-A*02:01 complex on T2 cells (member of the P19 mixture) (human).
T9 construct: Loaded on T2 cells as part of the mixture of 19 control peptides
Kind of assay: flow cytometry, phage on T2 cells. The method, boiled down: as §1

The target in assay [7] is T10, control peptide A2E-15/HLA-A*02:01 complex on T2 cells (member of the P19 mixture) (human).
T10 construct: Loaded on T2 cells as part of the mixture of 19 control peptides
Kind of assay: flow cytometry, phage on T2 cells. The method, boiled down:
as §1

In assay [8] the target is T11, control peptide A2E-16/HLA-A*02:01 complex on T2 cells (member of the P19 mixture) (human).
T11 construct: Loaded on T2 cells as part of the mixture of 19 control peptides
Description: flow cytometry, phage on T2 cells. In a few lines: as §1

Assay [9] addresses T12, control peptide A2E-5/HLA-A*02:01 complex on T2 cells (member of the P19 mixture) (human).
T12 construct: Loaded on T2 cells as part of the mixture of 19 control peptides
Kind of assay: flow cytometry, phage on T2 cells. In a few lines: as §1

Assay [10] concerns the target T13, control peptide A2E-23/HLA-A*02:01 complex on T2 cells (member of the P19 mixture) (human).
T13 construct: Loaded on T2 cells as part of the mixture of 19 control peptides
Description: flow cytometry, phage on T2 cells. The method, boiled down:
as §1

The target of assay [11] is T14, control peptide A2E-4/HLA-A*02:01 complex on T2 cells (member of the P19 mixture) (human).
T14 construct: Loaded on T2 cells as part of the mixture of 19 control peptides
Kind of assay: flow cytometry, phage on T2 cells. The method, boiled down:
as §1

Assay [12] addresses T15, control peptide A2E-17/HLA-A*02:01 complex on T2 cells (member of the P19 mixture) (human).
T15 construct: Loaded on T2 cells as part of the mixture of 19 control peptides
Kind of assay: flow cytometry, phage on T2 cells. In a few lines: as §1

Assay [13] has as its target T16, control peptide A2E-3/HLA-A*02:01 complex on T2 cells (member of the P19 mixture) (human).
T16 construct: Loaded on T2 cells as part of the mixture of 19 control peptides
Description: flow cytometry, phage on T2 cells. In a few lines:
as §1

For assay [14], the target named is T17, control peptide A2E-10/HLA-A*02:01 complex on T2 cells (member of the P19 mixture) (human).
T17 construct: Loaded on T2 cells as part of the mixture of 19 control peptides
Description: flow cytometry, phage on T2 cells. In a few lines:
as §1

For assay [15], the target named is T18, control peptide A2E-8/HLA-A*02:01 complex on T2 cells (member of the P19 mixture) (human).
T18 construct: Loaded on T2 cells as part of the mixture of 19 control peptides
Kind of assay: flow cytometry, phage on T2 cells. In a few lines:
as §1

For assay [16], the target named is T19, control peptide A2E-19/HLA-A*02:01 complex on T2 cells (member of the P19 mixture) (human).
T19 construct: Loaded on T2 cells as part of the mixture of 19 control peptides
Kind of assay: flow cytometry, phage on T2 cells. In a few lines: as §1

Assay [17] deals with T20, control peptide A2E-14/HLA-A*02:01 complex on T2 cells (member of the P19 mixture) (human).
T20 construct: Loaded on T2 cells as part of the mixture of 19 control peptides
Description: flow cytometry, phage on T2 cells. The method, boiled down:
as §1

Assay [18] addresses T21, control peptide A2E-9/HLA-A*02:01 complex on T2 cells (member of the P19 mixture) (human).
T21 construct: Loaded on T2 cells as part of the mixture of 19 control peptides
Description: flow cytometry, phage on T2 cells. In a few lines: as §1

The target of assay [19] is T22, control peptide A2E-6/HLA-A*02:01 complex on T2 cells (member of the P19 mixture) (human).
T22 construct: Loaded on T2 cells as part of the mixture of 19 control peptides
Kind of assay: flow cytometry, phage on T2 cells. In a few lines:
as §1

Assay [20] has as its target T23, control peptide A2E-11/HLA-A*02:01 complex on T2 cells (member of the P19 mixture) (human).
T23 construct: Loaded on T2 cells as part of the mixture of 19 control peptides
Description: flow cytometry, phage on T2 cells. The method, boiled down: as §1

In assay [21] the target is T24, control peptide A2E-1/HLA-A*02:01 complex on T2 cells (member of the P19 mixture) (human).
T24 construct: Loaded on T2 cells as part of the mixture of 19 control peptides
Description: flow cytometry, phage on T2 cells. In a few lines:
as §1

B1: PSA146/HLA-A*02:01-specific scFv phage clone #14 (scFv, V domains shown)
VH: EVQLVQSGAEVKKPGASVKVSCKASGYTFTGYFMHWVRQAPGQGLEWMGGFDPEDGETIYAQKFQGRVTMTEDTSTDTAYMELSSLRSEDTAVYYCARYSYDLWGQGTLVTVSS
VL: QTVVTQEPSLTVSPGGTVTLTCASSTGAVTSGYYPNWFQQKPGQAPRALIYSTSNKHSWTPARFSGSLLGGKAALTLSGVQPEDEAEYYCLLYYGGAQWVFGGGTKLTVLG
As to B1, the binding result in assay [1] was “no binding”; in [2] it was “binds”; with Bio-P19 member A2E-1, “no binding”; with Bio-P19 member A2E-10, “no binding”; in the assay with Bio-P19 member A2E-14, “no binding”; in assay [3], “no binding”. For the same molecule, the binding result in [4], in [5], in assay [6], in assay [7], in assay [8] and in [9] was “no binding” throughout. For the same molecule, the binding result in assay [10], in assay [11], in [12], in assay [13], in assay [14] and in assay [15] was “no binding” in each case. In addition, the binding result in assay [16], in assay [17], in [18], in [19], in assay [20] and in assay [21] was “no binding” throughout.

B2: PSA146/HLA-A*02:01-specific scFv phage clone #15 (scFv, V domains shown)
VH: QVQLVQSGAEVKKPGSSVKVSCKASGGTFSSYAISWVRQAPGQGLEWMGRIIPILGIANYAQKFQGRVTITADKSTSTAYMELSSLRSEDTAVYYCARVSQPVYGSSTYDIWGQGTLVTVSS
VL: QAVLTQPPSASGTPGQRVTISCSGRSSNLGSNSVNWYQQVPGTAPKLLIFDNHQRPSGVPDRFSGSKSGTSASLAISGLRSEDETDYYCAAWDDSLNSVVFGGGTKLTVLG
In the case of B2, the binding result in [1] is listed as “no binding”; in [2] it was “binds”; with Bio-P19 member A2E-1, “no binding”; in the assay with Bio-P19 member A2E-10 it was “no binding”; with Bio-P19 member A2E-14, “no binding”; in assay [3], “no binding”. Also, the binding result in assay [4], in assay [5], in assay [6], in [7], in [8] and in assay [9] was “no binding” throughout. The binding result in [10], in assay [11], in assay [12], in [13], in [14] and in assay [15] was “no binding” each time. For the same molecule, the binding result in assay [16], in assay [17], in assay [18], in assay [19], in assay [20] and in assay [21] was “no binding” throughout.

B3: PSA146/HLA-A*02:01-specific scFv phage clone #17 (scFv, V domains shown)
VH: QMQLVQSGAEVKKPGESLKISCKGSGYSFTSYWIGWVRQMPGKGLEWMGIIYPGDSDTRYSPSFQGQVTISADKSISTAYLQWSSLKASDTAMYYCARLVVPDAFDIWGQGTMVTVSS
VL: QSVVTQPPSVSAAPGQKVTISCSGSSSNIGNNYVSWYQQLPGTAPKLLIYDNYKRPSGIPDRFSGSKSGTSATLGITGLQTGDEADYYCGTWDSSLSAGVFGGGTKLTVLG
Regarding B3, the binding result was “no binding” in [1]; “binds” in assay [2]; “no binding” in the assay with Bio-P19 member A2E-1; “no binding” in the assay with Bio-P19 member A2E-10; “no binding” in the assay with Bio-P19 member A2E-14; “no binding” in [3]. The binding result in assay [4], in [5], in assay [6], in assay [7], in [8] and in [9] was “no binding” throughout. Further, the binding result in assay [10], in [11], in assay [12], in assay [13], in assay [14] and in assay [15] was “no binding” each time. The binding result in [16], in assay [17], in [18], in assay [19], in [20] and in assay [21] was “no binding” in each case.
